Experimental data published in the supplement of paper PMC9112550, “Optimization of the antimicrobial peptide Bac7 by deep mutational scanning” (BMC Biology, 2022).

Test system: Escherichia coli TOP10
Assay: shrunken log2 fold change of peptide-encoding DNA abundance (4.5 h post-induction vs induction); higher = less antimicrobial activity (less host growth inhibition)
Conditions: time post-induction: 4.5 h; library: site-saturation at positions 5, 18, 19, 20
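Also: peptides expressed intracellularly from a pBAD plasmid library in pooled LB shake-flask culture, induced with 0.3% L-arabinose, DNA abundance read by NGS, three biological replicates, DESeq2 with apeglm shrinkage.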

Sequence	shrunken log2 fold change
RRIRIRPPRLPRPRPRPTIFPRP	-0.398
RRIRVRPPRLPRPRPRPGQAPRP	-0.0106
RRIRLRPPRLPRPRPRPVWIPRP	0.0148
RRIRIRPPRLPRPRPRPQQVPRP	0.00944
RRIRHRPPRLPRPRPRPMGQPRP	-0.239
RRIRLRPPRLPRPRPRPSVWPRP	0.158
RRIRNRPPRLPRPRPRPQTIPRP	-0.194
RRIRMRPPRLPRPRPRPDGPPRP	0.0285
RRIRKRPPRLPRPRPRPDIWPRP	0.211
RRIRLRPPRLPRPRPRPFIVPRP	-0.238
RRIRMRPPRLPRPRPRPWSGPRP	-0.0411
RRIRKRPPRLPRPRPRPEMCPRP	1.1
RRIRHRPPRLPRPRPRPQSWPRP	0.0657
RRIRSRPPRLPRPRPRPKWSPRP	-0.132
RRIRMRPPRLPRPRPRPIVMPRP	0.163
RRIRQRPPRLPRPRPRPLNKPRP	-0.503
RRIRNRPPRLPRPRPRPYQVPRP	-0.0131
RRIRDRPPRLPRPRPRPACRPRP	0.219
RRIRKRPPRLPRPRPRPHVKPRP	-0.258
RRIRNRPPRLPRPRPRPFQDPRP	-0.00135
RRIRERPPRLPRPRPRPNKVPRP	-0.372
RRIRKRPPRLPRPRPRPHWCPRP	1.98
RRIRVRPPRLPRPRPRPHAIPRP	-0.0728
RRIRKRPPRLPRPRPRPWILPRP	-0.14
RRIRHRPPRLPRPRPRPVEGPRP	0.105

Sequence	shrunken log2 fold change
RRIRQRPPRLPRPRPRPWQAPRP	0.124
RRIRFRPPRLPRPRPRPAQPPRP	0.277
RRIRNRPPRLPRPRPRPDLMPRP	3.21
RRIRERPPRLPRPRPRPYYSPRP	-0.0755
RRIRSRPPRLPRPRPRPWWMPRP	-0.0399
RRIRPRPPRLPRPRPRPMMYPRP	-0.198
RRIRHRPPRLPRPRPRPHNFPRP	-0.0184
RRIRPRPPRLPRPRPRPWRIPRP	-0.0585
RRIRIRPPRLPRPRPRPWIDPRP	0.0218
RRIRRRPPRLPRPRPRPFNYPRP	-0.0716
RRIRERPPRLPRPRPRPPEYPRP	-0.0278
RRIRPRPPRLPRPRPRPMASPRP	0.011
RRIRMRPPRLPRPRPRPGNPPRP	0.639
RRIRSRPPRLPRPRPRPYEYPRP	-0.55
RRIRGRPPRLPRPRPRPMKPPRP	0.276
RRIRYRPPRLPRPRPRPSRSPRP	0.134
RRIRARPPRLPRPRPRPMTFPRP	-0.191
RRIRPRPPRLPRPRPRPLNQPRP	-0.217
RRIRLRPPRLPRPRPRPTAHPRP	0.0391
RRIRPRPPRLPRPRPRPGDKPRP	-0.307
RRIRSRPPRLPRPRPRPKLWPRP	0.564
RRIRIRPPRLPRPRPRPHKTPRP	-0.000475
RRIRERPPRLPRPRPRPEWQPRP	-0.0536
RRIRYRPPRLPRPRPRPFGSPRP	-0.0685
RRIRWRPPRLPRPRPRPEIKPRP	-0.0674

Sequence	shrunken log2 fold change
RRIRVRPPRLPRPRPRPWMDPRP	0.0171
RRIRTRPPRLPRPRPRPHIFPRP	2.13
RRIRDRPPRLPRPRPRPDHMPRP	-0.0107
RRIRVRPPRLPRPRPRPVRDPRP	0.0998
RRIRGRPPRLPRPRPRPVLIPRP	0.223
RRIRQRPPRLPRPRPRPLEPPRP	-0.227
RRIRDRPPRLPRPRPRPHHEPRP	0.0131
RRIRIRPPRLPRPRPRPTAAPRP	0.116
RRIRLRPPRLPRPRPRPMERPRP	-0.00192
RRIRCRPPRLPRPRPRPWLDPRP	-0.273
RRIRARPPRLPRPRPRPSAGPRP	0.65
RRIRIRPPRLPRPRPRPWFHPRP	-0.768
RRIRGRPPRLPRPRPRPCSTPRP	1.14
RRIRRRPPRLPRPRPRPMDVPRP	0.0427
RRIRGRPPRLPRPRPRPPCSPRP	0.238
RRIRHRPPRLPRPRPRPRAQPRP	0.0972
RRIRIRPPRLPRPRPRPQYDPRP	-0.043
RRIRMRPPRLPRPRPRPAPQPRP	1.77
RRIRPRPPRLPRPRPRPMGMPRP	0.0285
RRIRGRPPRLPRPRPRPLWDPRP	0.537
RRIRLRPPRLPRPRPRPAMHPRP	0.0794
RRIRPRPPRLPRPRPRPICWPRP	0.0407
RRIRYRPPRLPRPRPRPNMYPRP	-0.411
RRIRGRPPRLPRPRPRPPKKPRP	1.03
RRIRIRPPRLPRPRPRPWSQPRP	-0.738

Sequence	shrunken log2 fold change
RRIRGRPPRLPRPRPRPFYIPRP	0.0551
RRIRTRPPRLPRPRPRPIEVPRP	0.131
RRIRIRPPRLPRPRPRPCNEPRP	-0.0608
RRIRNRPPRLPRPRPRPRVEPRP	0.345
RRIRARPPRLPRPRPRPCVIPRP	0.158
RRIRFRPPRLPRPRPRPGNFPRP	-0.133
RRIRMRPPRLPRPRPRPPLGPRP	1.08
RRIRIRPPRLPRPRPRPQVDPRP	0.0508
RRIRCRPPRLPRPRPRPNTNPRP	-0.66
RRIRTRPPRLPRPRPRPAVNPRP	0.000461
RRIRFRPPRLPRPRPRPFMIPRP	-0.456
RRIRQRPPRLPRPRPRPLTFPRP	-0.0576
RRIRERPPRLPRPRPRPSWQPRP	-0.00861
RRIRQRPPRLPRPRPRPWPPPRP	0.16
RRIRMRPPRLPRPRPRPCYGPRP	-0.534
RRIRWRPPRLPRPRPRPNTMPRP	-0.301
RRIRQRPPRLPRPRPRPCGPPRP	-0.141
RRIRCRPPRLPRPRPRPHKHPRP	-0.58
RRIRDRPPRLPRPRPRPMCRPRP	-0.0461
RRIRTRPPRLPRPRPRPTQHPRP	0.22
RRIRYRPPRLPRPRPRPKKLPRP	-0.647
RRIRGRPPRLPRPRPRPVVNPRP	0.0184
RRIRKRPPRLPRPRPRPDENPRP	1.42
RRIRWRPPRLPRPRPRPGKLPRP	-0.368
RRIRLRPPRLPRPRPRPIHWPRP	0.143

Sequence	shrunken log2 fold change
RRIRDRPPRLPRPRPRPQAGPRP	0.152
RRIRKRPPRLPRPRPRPYCWPRP	-0.315
RRIRERPPRLPRPRPRPWQSPRP	-0.00865
RRIRQRPPRLPRPRPRPEYCPRP	-0.0411
RRIRKRPPRLPRPRPRPFAEPRP	0.266
RRIRARPPRLPRPRPRPEHSPRP	0.244
RRIRRRPPRLPRPRPRPMFNPRP	-0.146
RRIRERPPRLPRPRPRPARKPRP	0.00472
RRIRDRPPRLPRPRPRPHQTPRP	0.0267
RRIRTRPPRLPRPRPRPDRCPRP	-0.0274
RRIRTRPPRLPRPRPRPVYRPRP	-0.361
RRIRYRPPRLPRPRPRPQNWPRP	-0.611
RRIRGRPPRLPRPRPRPPHFPRP	0.67
RRIRLRPPRLPRPRPRPIYFPRP	-0.37
RRIRKRPPRLPRPRPRPGKDPRP	0.173
RRIRFRPPRLPRPRPRPRRQPRP	0.108
RRIRRRPPRLPRPRPRPSFDPRP	0.135
RRIRTRPPRLPRPRPRPFAQPRP	-0.178
RRIRFRPPRLPRPRPRPMYHPRP	-1.01
RRIRIRPPRLPRPRPRPQQAPRP	0.0151
RRIRIRPPRLPRPRPRPRLVPRP	0.22
RRIRNRPPRLPRPRPRPTGGPRP	0.154
RRIRDRPPRLPRPRPRPTDSPRP	-0.0622
RRIRNRPPRLPRPRPRPGYIPRP	-1.11
RRIRDRPPRLPRPRPRPYVYPRP	-0.0147

Sequence	shrunken log2 fold change
RRIRLRPPRLPRPRPRPKMMPRP	-0.167
RRIRMRPPRLPRPRPRPKQLPRP	0.83
RRIRSRPPRLPRPRPRPEFHPRP	-0.162
RRIRARPPRLPRPRPRPNFQPRP	-0.0343
RRIRARPPRLPRPRPRPIDKPRP	0.236
RRIRIRPPRLPRPRPRPKGVPRP	-0.00153
RRIRLRPPRLPRPRPRPIKNPRP	-0.317
RRIRWRPPRLPRPRPRPWCIPRP	-0.225
RRIRIRPPRLPRPRPRPKVIPRP	0.0457
RRIRYRPPRLPRPRPRPQWTPRP	-0.0155
RRIRTRPPRLPRPRPRPFHPPRP	-0.335
RRIRVRPPRLPRPRPRPVGDPRP	0.294
RRIRTRPPRLPRPRPRPMKPPRP	-0.0805
RRIRLRPPRLPRPRPRPFFHPRP	-0.37
RRIRNRPPRLPRPRPRPGIAPRP	0.0989
RRIRTRPPRLPRPRPRPCVAPRP	0.192
RRIRTRPPRLPRPRPRPSKQPRP	-0.11
RRIRCRPPRLPRPRPRPDSEPRP	0.0197
RRIRGRPPRLPRPRPRPVPIPRP	0.372
RRIRNRPPRLPRPRPRPFASPRP	-0.0512
RRIRKRPPRLPRPRPRPHVRPRP	-0.0167
RRIRSRPPRLPRPRPRPSDFPRP	-0.536
RRIRRRPPRLPRPRPRPYKFPRP	0.0202
RRIRTRPPRLPRPRPRPDIFPRP	-0.234
RRIRCRPPRLPRPRPRPSYKPRP	-0.572
